Reference: publication PMC5595714, “Activation of secondary cell wall biosynthesis by miR319‐targeted TCP4 transcription factor”

T1: rTCP4-HIS (UniProt Q8LPR5 1-420)
T1 sequence: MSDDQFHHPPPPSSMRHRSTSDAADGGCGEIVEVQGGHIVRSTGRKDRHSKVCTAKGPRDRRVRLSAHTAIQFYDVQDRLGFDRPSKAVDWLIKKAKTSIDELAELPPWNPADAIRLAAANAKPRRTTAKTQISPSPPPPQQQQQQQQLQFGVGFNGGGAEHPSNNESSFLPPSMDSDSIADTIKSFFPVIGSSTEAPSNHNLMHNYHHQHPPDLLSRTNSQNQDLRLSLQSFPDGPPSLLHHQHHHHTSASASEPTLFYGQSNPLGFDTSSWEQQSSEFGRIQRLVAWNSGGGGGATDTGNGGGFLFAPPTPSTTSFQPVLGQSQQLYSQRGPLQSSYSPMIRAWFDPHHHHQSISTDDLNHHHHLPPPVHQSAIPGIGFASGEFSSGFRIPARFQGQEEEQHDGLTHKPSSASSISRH

T2: TCP4-HIS (UniProt Q8LPR5 1-420)
T2 sequence: T1 sequence

B1: VND7 promoter probe (dsDNA)
DNA 1: ATTGTTGGGTGGTCCCATAAAAAT
DNA 2: ATTTTTATGGGACCACCCAACAAT
B2: VND7 promoter cold probe (dsDNA)
DNA 1: ATTGTTGGGTGGTCCCATAAAAAT
DNA 2: ATTTTTATGGGACCACCCAACAAT

What was measured:
rTCP4-HIS = target: T1, rTCP4-HIS; assay: EMSA; 20 mM HEPES-KOH pH 7.8, 100 mM KCl, 1 mM EDTA, 0.1% BSA, 10 ng herring sperm DNA, 10% glycerol; 100 fmol probe, 1 ug protein, 20 uL, 30 min, room temperature; conditions: protein: recombinant; tags: His (pET32a fusion); chain copies: 2; label: biotin 3'; blunt
TCP4-HIS [1] = target: T2, TCP4-HIS; assay: as above; conditions: protein: recombinant; tags: His (pET32a fusion); chain copies: 2; label: biotin 3'; blunt
TCP4-HIS [2] = target: T2, TCP4-HIS; assay: competition; 10x and 50x unlabeled probe against N1, dose-dependent; 20 mM HEPES-KOH pH 7.8, 100 mM KCl, 1 mM EDTA, 0.1% BSA, 10 ng herring sperm DNA, 10% glycerol; 100 fmol probe, 1 ug protein, 20 uL, 30 min, room temperature; conditions: protein: recombinant; tags: His (pET32a fusion); chain copies: 2; blunt

Row | Binder | binding result (rTCP4-HIS) | binding result (TCP4-HIS [1]) | binding result (TCP4-HIS [2])
1 | B1 | binds | binds | –
2 | B2 | – | – | binds
